Assays:
Full-length human CaM = Full-length human CaM (Homo sapiens, UniProt P0DP23); assay: ITC of CK peptides with full-length CaM; assay type: binding
[1] = target: C-lobe fragment (CaM 76–146) (Homo sapiens, UniProt P0DP23); assay: ITC of CK peptides with C-lobe fragment of CaM; assay type: binding; settings: C-lobe compared to N-lobe
[2] = target: Calmodulin N-terminal globular domain (N-lobe fragment, sequence 1-75) (human, UniProt P0DP23 1-75); assay: ITC
[3] = target: Calmodulin C-terminal globular domain (C-lobe fragment, sequence 76-146) (human, UniProt P0DP23 76-146); assay: ITC

Molecule | binding to CaM (Full-length human CaM; at any solution conditions) | affinity for C-lobe relative to N-lobe (times higher) [1] | stoichiometry n (Full-length human CaM; presence of Ca2+) | stoichiometry N [2] [peptide per fragment] | stoichiometry N [3] [peptide per fragment]
AcNH-LKRLRLQKRGTGGVDTAA-CONH2 [peptide covering CKB residues 312–329] | No binding could be detected | – | – | – | –
Ac-NLGKHEKFSEVLKRLRLQ-NH2 [CKB peptide] | – | ca. 10 times | 2 | – | –
Ac-NLGKHEKFSEVLKRLRLQ-NH2 [CKB peptide (human brain-type creatine kinase residues 301-318)] | – | – | – | 1 | 1
Ac-HLSKHPKFEEILTRLRLQ-NH2 [CKM peptide (human muscle-type creatine kinase residues 301-318)] | – | – | – | 1 | 1

Reference: paper PMC8244255 (Current Research in Structural Biology, 2021)
